Reference: a protein production outcome set (Wang et al. 2014)

Experiment: label from the status in PepcDB records

Sequence	protein production
MSALRVTSPSVEYVQRPLGLDAAHPRLSWPMASAAPGRRQSAYQVRVASSAAGLSHPDVWDSGKVVSDDSVLVPYAGPPLKPRTRYFWSVRVWDADGGASEWSAPSWWETGLMGASQWSAKWISAPAPLTEAPSLEGSSWIWFPEGEPANSAPAATRWFRRTVDLPDDITGATLAISADNVYAVSVDGAEVARTDLEADNEGWRRPAVIDVLDHVHSGNNTLAVSASNASVGPAGWICVLVLTTASGEKKIFSDASWKSTDHEPADGWREPDFDDSGWPAAKVAAAWGAGPWGRVAPVASAANQLRHEFRLPHKKVSRARLYATALGLYEAHLNGRRVGRDQLAPGWTDYRKRVQYQTYDVTSSVRPGANALAAYVAPGWYAGNVGMFGPHQYGERPALLAQLEVEYADGTSERITSGPDWRAASGPIVSADLLSGETYDARKETAGWTSPGFDDRAWLAVRGADNDVPEQIVAQVDGPVRIAKELPARKVTEPKPGVFVLDLGQNMVGSVRLRVSGDAGTTVRLRHAEVLNPDGTIYTANLRSAAATDTYTLKGQGEETYEPRFTFHGFRYVEVTGFPGKPSTTSVTGRVMHTSAPFTFEFETNVPMLNKLHSNITWGQRGNFLSVPTDTPARDERLGWTGDINVFAPTAAYTMESARFLTKWLVDLRDAQTSDGAFTDVAPAVGNLGNGVAGWGDAGVTVPWALYQAYGDRQVLADALPSVHAWLRYLEKHSDGLLRPADGYGDWLNVSDETPKDVIATAYFAHSADLAARMATELGKDAAPYTDLFTRIRKAFQTAYVASDGKVKGDTQSAYVLTLSMNLVPDALRKAAADRLVALIEAKDWHLSTGFLGTPRLLPVLTDTGHTDVAYRLLHQRTFPSWGYPIDKGSTTMWERWDSIQPDGGFQTPEMNSFNHYAYGSVGEWMYANIAGIAPGRAGYRQVVIRPRPGGEVTSARATFASLHGPVSTRWQQRSGGFVLTCSVPPNTTAEVWIPADHPDRVQHTHGTFVRAEDGCAVFEVGSGSHRFTV	failed
MNLILYLVTVFVALFAMVNPIGALPVLVSVTEGYSKDDFERVVRYAAMSEALMLFSFMLIGIYIFEVLGININDFKVAGGVLLFKVAFDMLQGRTSTTKLTPAETEESIERTSIGIAPIGTPLLAGPGSITAAIIYFNSYSVNIPEKIAVVISVSLVVVISYFILHYSSVLFKYLGKTGSLIISRIMGLLLAAIAVDFMVTGLAFIVKSITGV	failed
MAPRDIRPGAEYGDIIEEAIVTCKVFLIVFSETSQISRWVRSELNIGFSSNKPIIPFRIDPTDLKGSMKLMLNDKHWLNAYPNPEEKFSELAAVILDLLQHPAVDTISPPGFQPASNVASADGSNAGAQGLFGKLLNQLFVKRRVKVTSDHAAEIFLNGERKGKLDAYETGNYSVSEDFYQLEVYSCEYGKKVKCEYSGSFSNSSTVIISVDMATAEKQYLMKAKNITSGQINDLGIIFLDEGKFEDAQECFLKAASMGEAAAAYNLGMMYHFGKGVEIDYDVAREYYEEAVKSDYPLALNNLGSIYYNGHGVRKDIAKSFPYFCRAAERGVESAQFTVATMLFYGQGVAVDKAKAKKWFQKAAAQGCKDSQNYLNSWVDDLEHHHHHH	not failed
MANDIDRAGVAKAYARWAPIYDLVFGKVFDSGRQSTIAVADAIGGRVLDVGVGTGLSLSDYSKTTRLCGVDISEPMLRKAHERVRTLNLSNVDVLAVMDAKNLAFPANYFDAVVAQYVITAVPDPEATLDDFIRVLKPGGELILVNHIGAESGPRKLFELAFSPIARRLGWRPEFPWQRLVNWAARHRGVELAERRPMPPMGHFSLIRYRKLLEHHHHHH	failed
MLTTTRRAALISGLATTGLAAFGNRAFAQETGAVGAAVDKFAQDVMAAFPDQPGLGITVVENGQITLAKGYGVKALGGQDRCDESTVFGIASNTKAMTAALLAMLVEEGRVEWDAPVTQYLPDFAMKDPIVTKLLTVRDLLVHRSGLSLGAGDLMIWPAPTHTRAEIVAGLKHLPIGGQFRGGYAYDNVLYVVAGAVIEAVTGQTWEQVIKARIFDPLGMSNTVSSPRLVDQSRRALPHARLGPPVRGLGPQKVLPFDASFDAAGPAGGVNSCPADIGKWMQVQLGRGVSADGKRLWSEAQAREMWKPQTITSSSDGPSNENPARPSMQAYALGWYVQDHRGERLLWHTGGLAGFISYTGLLPGRKSGIMIMTNAEENPVLRSLRFGGPDRLQGRSDFDWIASSKRVQAEADAQTIKDAAAATTPKGGGAPPSLPLEAYAGVYRDPWYGTVTISVTGKGKKKGLYVSFDKTPLLRGKLGPFDGETFITTFEDRTQEDAFFTFDIKDGKAVSALVKAVSPLADFSYDYHDLRLTKEG	failed
